Experimental findings from publication PMC12397275 (Nature Communications, 2025) are described below.

The target of this assay is T1, 670-689 VP3 peptide (rhesus rotavirus RRV strain).
T1 construct: source: synthetic peptide (Gencript)
In words: BLI. The conditions noted are these: both partners purified.

B1: PFDN3 protein (His tag removed) (natural protein)
chain: MAAVKDSCGKGEMATGNGRRLHLGIPEAVFVEDVDSFMKQPGNETADTVLKKLDEQYQKYKFMELNLAQKKRRLKGQIPEIKQTLEILKYMQKKKESTNSMETRFLLADNLYCKASVPPTDKVCLWLGANVMLEYDIDEAQALLEKNLSTATKNLDSLEEDLDFLRDQFTTTEVNMARVYNWDVKRRNKDDSTKNKA
notes: also called non-Tagged PFDN3; human PFDN3; source: bought: Abcam (ab139201), His tag cleaved with thrombin
As for B1, the binding result is reported as “binds”.
